From patent US20220293215A1
Read-outs that look alike come from different tables or passages of the source.

What was measured:
[1] = target: T1, I-A^b (MHCII) of murine bone marrow-derived dendritic cells from C57BL/6J mice (mouse), P14434; test: MHCII peptidomics: Y3P IP of peptide-MHCII from BMDCs exposed to live Listeria, iTRAQ LC-MS/MS; conditions: scale: log2 fold change, Listeria 6 hr versus 10 min
T1 chain 1: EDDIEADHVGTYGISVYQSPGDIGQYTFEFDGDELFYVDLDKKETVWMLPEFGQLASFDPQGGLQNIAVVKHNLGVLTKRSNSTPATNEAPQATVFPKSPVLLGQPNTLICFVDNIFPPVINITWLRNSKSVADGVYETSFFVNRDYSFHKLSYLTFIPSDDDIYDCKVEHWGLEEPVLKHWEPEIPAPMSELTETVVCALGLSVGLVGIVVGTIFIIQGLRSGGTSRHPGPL
T1 chain 2: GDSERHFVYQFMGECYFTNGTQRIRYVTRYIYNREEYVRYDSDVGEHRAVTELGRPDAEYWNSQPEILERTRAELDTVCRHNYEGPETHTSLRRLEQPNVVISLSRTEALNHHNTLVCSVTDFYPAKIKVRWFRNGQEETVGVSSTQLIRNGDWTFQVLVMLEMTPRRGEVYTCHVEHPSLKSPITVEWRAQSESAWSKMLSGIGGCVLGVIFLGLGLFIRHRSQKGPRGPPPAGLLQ

[2] = target: T1, I-A^b (MHCII) of murine bone …; conditions: scale: log2 fold change, Listeria 6 hr versus 10 min

ERWNEKYAQAYPNVS (modifications not checked)
logFC [1]: 0.207

WNEKYAQAYPNVSAKI (modifications not checked)
logFC [1]: 1.2

WNEKYAQAYPNVS (modifications not checked)
logFC [1]: 1.38

VERWNEKYAQAYPNVS (modifications not checked)
logFC [1]: 0.285

ESVYLSAQKENPRLFAKIETF (modifications not checked) [Listeria peptide …n… (lmo1574 (dnaE))]
logFC [2]: 0.595
